Results from patent US20220177587A1, “METHODS AND USES OF VARIANT CD80 FUSION PROTEINS AND RELATED CONSTRUCTS” (Alpine Immune Sciences, Inc., priority 2018, published 2022).

Experiments:
CD28 [1] = molecular target: T1, CD28 (Homo sapiens, UniProt P10747); experiment: Flow binding to Jurkat/IL2 reporter cells (CD28); parameters: host or cells: Jurkat cells expressing an IL-2-luciferase reporter; conditions: Table E19; for CD28 MFI at 33.3 nM: Jurkats (CD28); for CD28 Fold change to WT CD80: MFI at 33.3 nM relative to WT CD80 ECD-Fc (Abcam)
In short: (§1)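 Cells were first blocked in PBS with 1% BSA and 0.1% sodium azide. Primary staining with fusion protein ran 45 min on ice, and secondary staining with PE anti-human Fc at 1:150 ran 30 min on ice.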

CD28 [2] = molecular target: T1, CD28; experiment: Jurkat/IL2 + CHO/OKT3 +/- PD-L1 reporter assay: PD-L1-dependent CD28 costimulation; format: cell-based; parameters: host or cells: Jurkat cells expressing an IL-2-luciferase reporter; conditions: Table E21, Jurkat/IL2 + CHO/OKT3/PD-L1; for Fold Increase over WT CD80-IgV-Fe: 5.0 nM
In short: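 Readout is relative luminescence from lysed cocultures: test protein given 15 min at room temperature to Jurkat cells before adding CHO artificial APCs displaying OKT3 alone or OKT3 plus PD-L1, then 5 h at 37 °C, 5% CO2.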

huCTLA4 = huCTLA4 (Homo sapiens, UniProt P16410); experiment: Flow binding to CHO cells stably expressing CTLA4; parameters: huCTLA4 and huPD-L1, full-length mammalian surface expression constructs were generated; expressed in transfected cells; host or cells: CHO cells, lentiviral transduction, sorted to >98% purity; conditions: Table E19; for CTLA4 MFI at 33.3 nM: CHO cells stably expressing CTLA4; for CTLA4 Fold change to WT CD80: MFI at 33.3 nM relative to WT CD80 ECD-Fc (Abcam)
In short: as §1

huPD-L1 = huPD-L1 (Homo sapiens, UniProt Q9NZQ7); experiment: Flow binding to CHO cells stably expressing PD-L1; parameters: huCTLA4 and huPD-L1, full-length mammalian surface expression constructs were generated; expressed in transfected cells; host or cells: CHO cells, lentiviral transduction, sorted to >98% purity; conditions: Table E19; for PD-L1 MFI at 33.3 nM: CHO cells stably expressing PD-L1; for PD-L1 Fold change to WT CD80: MFI at 33.3 nM relative to WT CD80 ECD-Fc (Abcam); for Ratio of PDL1:CD28: ratio of MFI at 33.3 nM
In short: as §1

Chain of huCTLA4 (P16410 36-223): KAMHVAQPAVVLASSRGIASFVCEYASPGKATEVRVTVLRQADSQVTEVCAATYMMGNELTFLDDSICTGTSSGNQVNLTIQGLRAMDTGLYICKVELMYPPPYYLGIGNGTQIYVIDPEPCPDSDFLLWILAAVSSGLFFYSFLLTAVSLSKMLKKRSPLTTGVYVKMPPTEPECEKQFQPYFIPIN
Chain of huPD-L1 (Q9NZQ7 19-290): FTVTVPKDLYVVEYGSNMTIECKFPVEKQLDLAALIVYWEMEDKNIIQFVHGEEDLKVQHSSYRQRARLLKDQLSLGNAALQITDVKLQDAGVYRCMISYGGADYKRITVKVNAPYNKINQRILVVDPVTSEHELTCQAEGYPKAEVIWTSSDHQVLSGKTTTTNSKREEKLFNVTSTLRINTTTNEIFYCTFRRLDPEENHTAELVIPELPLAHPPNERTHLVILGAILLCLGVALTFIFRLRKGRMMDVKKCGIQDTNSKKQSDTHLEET

Row | Molecule | CD28 MFI at 33.3 nM (CD28 [1]) | CD28 Fold change to WT CD80 (CD28 [1]) | Fold Increase over WT CD80-IgV-Fe (CD28 [2]) | Relative Luciferase Units (RLU), CD80 Conc 5.0 nM (CD28 [2]) | CTLA4 MFI at 33.3 nM (huCTLA4) | CTLA4 Fold change to WT CD80 (huCTLA4) | PD-L1 MFI at 33.3 nM (huPD-L1) | PD-L1 Fold change to WT CD80 (huPD-L1) | Ratio of PDL1:CD28 (huPD-L1)
1 | E35D/N48K (protein) VIHVTKEVKEVATLSCGHNVSVEELAQTRIYWQKDKKMVLTMMSGDMKIWPEYKNRTIFDITNNLSIVILALRPSDEGTYECVVLKYEKDAFKREHLAEVTLSVKAD | 194 | 0.3 fold | 5.1 fold | 590 RLU | 41325 | 1.0 fold | 6545 | 51.1 fold | 33.7
2 | E35D/D46V/M47V/V68M/L85Q (protein) VIHVTKEVKEVATLSCGHNVSVEELAQTRIYWQKDKKMVLTMMSGVVNIWPEYKNRTIFDITNNLSIMILALRPSDEGTYECVVQKYEKDAFKREHLAEVTLSVKAD | 331 | 0.5 fold | 8.5 fold | 980 RLU | 36463 | 0.9 fold | 26290 | 205.4 fold | 79.4
3 | M47V/N48K/V68M (protein) VIHVTKEVKEVATLSCGHNVSVEELAQTRIYWQKEKKMVLTMMSGDVKIWPEYKNRTIFDITNNLSIMILALRPSDEGTYECVVLKYEKDAFKREHLAEVTLSVKAD | 641 | 0.9 fold | 5.8 fold | 664 RLU | 34612 | 0.9 fold | 14464 | 113.0 fold | 22.6
4 | E35D/N48K/K89N (protein) VIHVTKEVKEVATLSCGHNVSVEELAQTRIYWQKDKKMVLTMMSGDMKIWPEYKNRTIFDITNNLSIVILALRPSDEGTYECVVLKYENDAFKREHLAEVTLSVKAD | 411 | 0.6 fold | 6.3 fold | 719 RLU | 34727 | 0.9 fold | 5766 | 45.0 fold | 14.0
5 | E35D/K89N (protein) VIHVTKEVKEVATLSCGHNVSVEELAQTRIYWQKDKKMVLTMMSGDMNIWPEYKNRTIFDITNNLSIVILALRPSDEGTYECVVLKYENDAFKREHLAEVTLSVKAD | 236 | 0.3 fold | 2.5 fold | 293 RLU | 21755 | 0.5 fold | 757 | 5.9 fold | 3.2
6 | E35D/D46V/M47V/N48K/V68M (protein) VIHVTKEVKEVATLSCGHNVSVEELAQTRIYWQKDKKMVLTMMSGVVKIWPEYKNRTIFDITNNLSIMILALRPSDEGTYECVVLKYEKDAFKREHLAEVTLSVKAD | 1085 | 1.5 fold | 6.1 fold | 696 RLU | 23880 | 0.6 fold | 25940 | 202.7 fold | 23.9
7 | M47V/N48K/K89N (protein) VIHVTKEVKEVATLSCGHNVSVEELAQTRIYWQKEKKMVLTMMSGDVKIWPEYKNRTIFDITNNLSIVILALRPSDEGTYECVVLKYENDAFKREHLAEVTLSVKAD | 366 | 0.5 fold | 4.1 fold | 472 RLU | 42071 | 1.0 fold | 2366 | 18.5 fold | 6.5
8 | E35D/M47V/N48K/V68M/L85Q (protein) VIHVTKEVKEVATLSCGHNVSVEELAQTRIYWQKDKKMVLTMMSGDVKIWPEYKNRTIFDITNNLSIMILALRPSDEGTYECVVQKYEKDAFKREHLAEVTLSVKAD | 118 | 0.2 fold | 7.9 fold | 907 RLU | 26104 | 0.6 fold | 10479 | 81.9 fold | 88.8
9 | E35D/M47V/N48K/K89N (protein) VIHVTKEVKEVATLSCGHNVSVEELAQTRIYWQKDKKMVLTMMSGDVKIWPEYKNRTIFDITNNLSIVILALRPSDEGTYECVVLKYENDAFKREHLAEVTLSVKAD | 701 | 1.0 fold | 7.1 fold | 814 RLU | 43756 | 1.1 fold | 6669 | 52.1 fold | 9.5
10 | M47V/V68M (protein) VIHVTKEVKEVATLSCGHNVSVEELAQTRIYWQKEKKMVLTMMSGDVNIWPEYKNRTIFDITNNLSIMILALRPSDEGTYECVVLKYEKDAFKREHLAEVTLSVKAD | 328 | 0.5 fold | 4.8 fold | 553 RLU | 7282 | 0.2 fold | 4294 | 33.5 fold | 13.1
11 | E35D/M47V/V68M/L85Q/K89N (protein) VIHVTKEVKEVATLSCGHNVSVEELAQTRIYWQKDKKMVLTMMSGDVNIWPEYKNRTIFDITNNLSIMILALRPSDEGTYECVVQKYENDAFKREHLAEVTLSVKAD | 246 | 0.3 fold | 7.4 fold | 854 RLU | 30276 | 0.7 fold | 12085 | 94.4 fold | 49.1
